Laboratory results from patent US6537804B1, “BCR-ABL directed compositions and uses for inhibiting Philadelphia chromesome stimulated cell growth” (Board of Regents, The University of Texas Systems, priority 1995, dated 2003).

How the values were obtained:
Type in all cases: biochemical
casein = test: Immune complex kinase assay of mutant P160 BCR, transphosphorylation of casein
Description: (§1) Mutant forms of P160^BCR were expressed in COS-1 cells and tested for serine/threonine kinase activities in immune complex kinase assays.
(§2) Using the intensities of the P160^BCR bands as an indication of the amount of active P160^BCR in the immune complex and the intensities of the casein bands as a measure of transphosphorylation activity, the transphosphorylation activity of the Y360F Bcr mutant was reduced about sevenfold, compared with that of the wild type. Similarly, the Y360F Bcr mutant was also defective in transphosphorylating another exogenous substrate, histone H1.
The amounts of Bcr within these immune complexes were quantitated in two ways. In a first method, the amounts of Bcr mutants would be underestimated by about 10%, compared with that of the wild type. On the basis of these measurements, the specific activity of transkinase activity (casein intensity/P160^BCR intensity) of the Y360F Bcr mutant (0.03) was reduced more than 20-fold in this study, compared with that of the wild type.
The second method of estimating the amounts of P160^BCR in immune complexes involved the Western blotting of these immune complexes with an anti-Bcr antibody. The specific activity of Y360F was reduced by about sixfold. […] By using autophosphorylation of the Bcr protein as a measure of its relative amount, the reduction of Bcr's transkinase by the Y360F mutation was about sevenfold, confirming the results obtained by the Western blot method.

histone H1 = test: Immune complex kinase assay of mutant P160 BCR, transphosphorylation of histone H1
Description: as §1, §2

P160^BCR = molecular target: T1, P160^BCR (Homo sapiens, UniProt P11274, Y360F); test: Immune complex kinase assay of mutant P160 BCR, autophosphorylation
T1 construct: The original human full length BCR cDNAs were obtained from Dr. John Groffen; expressed in transfected cells; host or cells: COS-1
T1 sequence (P11274 1-1271 Y360F): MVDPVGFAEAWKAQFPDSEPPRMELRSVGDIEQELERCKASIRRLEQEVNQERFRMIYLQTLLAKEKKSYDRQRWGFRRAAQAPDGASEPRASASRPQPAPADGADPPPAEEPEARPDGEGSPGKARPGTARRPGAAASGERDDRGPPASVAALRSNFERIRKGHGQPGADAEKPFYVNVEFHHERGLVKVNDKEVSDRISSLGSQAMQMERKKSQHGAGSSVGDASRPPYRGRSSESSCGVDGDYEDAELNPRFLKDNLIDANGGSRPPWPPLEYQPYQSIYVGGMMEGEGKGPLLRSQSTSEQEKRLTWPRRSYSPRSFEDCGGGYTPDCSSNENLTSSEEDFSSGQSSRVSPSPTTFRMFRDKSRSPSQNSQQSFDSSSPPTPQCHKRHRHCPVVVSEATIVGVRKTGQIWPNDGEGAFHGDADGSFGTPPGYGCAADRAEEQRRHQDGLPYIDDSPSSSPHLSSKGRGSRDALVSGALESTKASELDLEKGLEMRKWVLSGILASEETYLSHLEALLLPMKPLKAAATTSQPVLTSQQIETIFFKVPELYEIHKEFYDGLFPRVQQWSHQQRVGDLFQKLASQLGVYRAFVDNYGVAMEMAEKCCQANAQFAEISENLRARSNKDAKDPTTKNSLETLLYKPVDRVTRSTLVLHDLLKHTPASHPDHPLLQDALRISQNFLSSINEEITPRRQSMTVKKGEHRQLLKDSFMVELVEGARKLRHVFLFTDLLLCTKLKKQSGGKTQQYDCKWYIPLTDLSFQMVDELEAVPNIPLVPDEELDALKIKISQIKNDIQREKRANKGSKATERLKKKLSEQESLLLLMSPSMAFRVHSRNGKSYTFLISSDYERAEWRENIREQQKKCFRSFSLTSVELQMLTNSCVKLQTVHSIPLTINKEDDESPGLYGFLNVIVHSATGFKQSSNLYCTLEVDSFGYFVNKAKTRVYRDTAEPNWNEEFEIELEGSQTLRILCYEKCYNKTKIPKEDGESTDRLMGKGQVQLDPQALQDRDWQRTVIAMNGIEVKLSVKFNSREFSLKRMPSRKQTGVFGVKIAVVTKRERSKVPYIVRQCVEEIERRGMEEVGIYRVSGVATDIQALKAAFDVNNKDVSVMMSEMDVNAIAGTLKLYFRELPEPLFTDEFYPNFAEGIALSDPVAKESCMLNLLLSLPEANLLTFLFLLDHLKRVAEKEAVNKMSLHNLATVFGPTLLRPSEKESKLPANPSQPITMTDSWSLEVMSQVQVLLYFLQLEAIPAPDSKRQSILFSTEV
Description: as §1

[1] = first method of quantitating Bcr in immune complexes

B1: Y360F Bcr mutant: P160 BCR with tyrosine 360 to phenylalanine mutation, expressed in COS-1 cells (protein, UniProt P11274 1-1271, looked up, variant Y360F)
Breakpoint cluster region …: MVDPVGFAEAWKAQFPDSEPPRMELRSVGDIEQELERCKASIRRLEQEVNQERFRMIYLQTLLAKEKKSYDRQRWGFRRAAQAPDGASEPRASASRPQPAPADGADPPPAEEPEARPDGEGSPGKARPGTARRPGAAASGERDDRGPPASVAALRSNFERIRKGHGQPGADAEKPFYVNVEFHHERGLVKVNDKEVSDRISSLGSQAMQMERKKSQHGAGSSVGDASRPPYRGRSSESSCGVDGDYEDAELNPRFLKDNLIDANGGSRPPWPPLEYQPYQSIYVGGMMEGEGKGPLLRSQSTSEQEKRLTWPRRSYSPRSFEDCGGGYTPDCSSNENLTSSEEDFSSGQSSRVSPSPTTFRMFRDKSRSPSQNSQQSFDSSSPPTPQCHKRHRHCPVVVSEATIVGVRKTGQIWPNDGEGAFHGDADGSFGTPPGYGCAADRAEEQRRHQDGLPYIDDSPSSSPHLSSKGRGSRDALVSGALESTKASELDLEKGLEMRKWVLSGILASEETYLSHLEALLLPMKPLKAAATTSQPVLTSQQIETIFFKVPELYEIHKEFYDGLFPRVQQWSHQQRVGDLFQKLASQLGVYRAFVDNYGVAMEMAEKCCQANAQFAEISENLRARSNKDAKDPTTKNSLETLLYKPVDRVTRSTLVLHDLLKHTPASHPDHPLLQDALRISQNFLSSINEEITPRRQSMTVKKGEHRQLLKDSFMVELVEGARKLRHVFLFTDLLLCTKLKKQSGGKTQQYDCKWYIPLTDLSFQMVDELEAVPNIPLVPDEELDALKIKISQIKNDIQREKRANKGSKATERLKKKLSEQESLLLLMSPSMAFRVHSRNGKSYTFLISSDYERAEWRENIREQQKKCFRSFSLTSVELQMLTNSCVKLQTVHSIPLTINKEDDESPGLYGFLNVIVHSATGFKQSSNLYCTLEVDSFGYFVNKAKTRVYRDTAEPNWNEEFEIELEGSQTLRILCYEKCYNKTKIPKEDGESTDRLMGKGQVQLDPQALQDRDWQRTVIAMNGIEVKLSVKFNSREFSLKRMPSRKQTGVFGVKIAVVTKRERSKVPYIVRQCVEEIERRGMEEVGIYRVSGVATDIQALKAAFDVNNKDVSVMMSEMDVNAIAGTLKLYFRELPEPLFTDEFYPNFAEGIALSDPVAKESCMLNLLLSLPEANLLTFLFLLDHLKRVAEKEAVNKMSLHNLATVFGPTLLRPSEKESKLPANPSQPITMTDSWSLEVMSQVQVLLYFLQLEAIPAPDSKRQSILFSTEV
With B1 the “Reduction of specific activity compared with wild type” value (casein; P160 BCR amount by Western blotting of immune complexes with anti-Bcr antibody) was “about sixfold”, the “Reduction of transphosphorylation activity compared with wild type, relative to P160 BCR autophosphorylation band intensity” value (casein; casein band intensity / P160 BCR band intensity) was “about sevenfold” and the “Reduction of specific transkinase activity compared with wild type” value (casein; [1]) was “more than 20 fold”. The “Specific activity of transkinase activity (casein intensity/P160^BCR intensity)” value (casein; [1]) was 0.03, the “Ability to transphosphorylate casein compared with wild-type Bcr” value (casein; mutant P160 BCR expressed in COS-1 cells) was “severely inhibited” and the “Transphosphorylation of histone H1” value (histone H1) was “defective”. The “P160^BCR autophosphorylation” value (P160^BCR) was “not detectably altered”.
